Results: US20240327543A1 (SHENGHE CHINA BIOPHARMACEUTICAL, published 2024)
Read-outs that look alike come from different tables or passages of the source.

Experiments:
[1] = target: T1, Human-NKP30-His (human, UniProt O14931 19-135, limits assumed); assay: ELISA, plate coated with Human-NKP30-His, detection with HRP goat anti-human IgG-Fc
T1 construct: Coated on the ELISA plate at 0.5 µg/mL; also called NKP30 protein; not shown: His tag
T1 sequence (looked up): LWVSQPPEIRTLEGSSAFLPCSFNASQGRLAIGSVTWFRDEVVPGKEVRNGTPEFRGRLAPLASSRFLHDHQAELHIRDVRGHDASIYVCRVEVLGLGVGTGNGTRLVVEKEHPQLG
Description: (§1) Human-NKP30-His was diluted to 0.5 μg/mL with PBS buffer at pH 7.4, added into the 96-well ELISA plate at 100 μL per well, coated overnight at 4° C., and blocked with 1% BSA blocking solution for 1 hour. The plate was washed 3 times with PBST, and the constructed antibodies were diluted to 10 μg/mL with 0.5% BSA sample diluent as the starting concentration, and then diluted by 3-fold gradient (11 gradients in total). A negative control (blank well and IgG1 isotype control) and a positive control were set, and the positive control was a NKP30 humanized antibody (sequence shown in SEQ ID No.32), and incubated at 37° C. for 1 h at 100 μL per well. […] The absorbance value of each well in the 96-well plate was determined by selecting the wavelength of 450 nm and the reference wavelength of 570 nm on a multifunctional enzyme marker, and the absorbance value (OD)=OD₄₅₀ₙₘ−OD₅₇₀ₙₘ. The logarithm of the concentration of the constructed antibodies were taken as the abscissa, and the measured absorbance value of each well was taken as the ordinate, and the Sigmoidaldose-response (Variable Slope) method (GraphPad Prism software, GraphPad Software, San Diego, California) was selected for nonlinear regression to obtain the binding curve of the target antibody to NKP30 protein.

[2] = target: T1, Human-NKP30-His; assay: as above; remark: listed apart in the source
Description: as §1

- EC50 (read off the curve) [1]: ~0.03 µg/mL
- EC50 (read off the curve) [2]: ~0.03 µg/mL
B1: NKP30 humanized antibody (SEQ ID No.32) (antibody, human IgG4 S228P, V domains shown)
VH: EVQLVESGGGLVQPGGSLRLSCAASGITFSRSVMGWFRQAPGKLRELVAGITSDDNTDYADSVKGRFTISRDNSKNTLYLQMNSLRAEDTAVYYCNILPDSRLGWGQGTLVTVSS
notes: It was detected with anti-human IgG-Fc; also called positive control; NKP30 monoclonal antibody
